Measurements taken from patent publication US20180134780A1 (Hoffmann-La Roche, published 2018).

Molecular target: T1, Human angiopoietin-2 (ANG-2) (human, UniProt O15123 19-496, limits assumed)
T1 construct: Bought (R&D Systems Cat. No. 623-AN) or produced in house; also called ANGPT2; huAngiopoietin-2
T1 sequence: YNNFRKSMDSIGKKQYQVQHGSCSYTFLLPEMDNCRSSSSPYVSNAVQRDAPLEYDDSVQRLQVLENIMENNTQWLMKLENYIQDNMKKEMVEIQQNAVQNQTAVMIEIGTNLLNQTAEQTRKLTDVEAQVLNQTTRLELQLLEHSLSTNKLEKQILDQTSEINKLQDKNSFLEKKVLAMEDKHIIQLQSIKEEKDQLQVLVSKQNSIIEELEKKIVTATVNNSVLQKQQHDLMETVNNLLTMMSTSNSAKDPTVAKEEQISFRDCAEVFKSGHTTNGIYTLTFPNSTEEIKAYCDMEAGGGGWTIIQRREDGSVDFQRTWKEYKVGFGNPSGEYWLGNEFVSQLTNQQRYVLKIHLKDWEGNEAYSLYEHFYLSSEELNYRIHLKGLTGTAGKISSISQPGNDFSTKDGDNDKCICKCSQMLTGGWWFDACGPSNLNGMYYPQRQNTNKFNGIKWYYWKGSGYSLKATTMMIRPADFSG
Assay: ANG2/Tie2 receptor interaction ELISA (Experiment A): antibody dilutions pre-incubated with 0.2 ug/ml huAngiopoietin-2, coated human Tie2, bound ANG-2 detected
Description: Blocking of human ANG-2/human Tie2 interaction was shown by receptor interaction ELISA. 384-well Maxisorp plates (Nunc) were coated with 0.5 μg/ml human Tie2 (R&D Systems, UK, Cat. No. 313-TI or in house produced material) for 2 h at room temperature and blocked with PBS supplemented with 0.2% Tween-20 and 2% BSA (Roche Diagnostics GmbH, DE) for 1 h at room temperature under shaking. In the meantime, Dilutions of purified antibodies in PBS were incubated together with 0.2 μg/ml huAngiopoietin-1/2 (R&D Systems #923-AN/CF, R&D Systems, UK, Cat. No. 623-AN or in house produced material) for 1 hour at RT. After washing a mixture of 0.5 μg/ml biotinylated anti-Angiopoietin-1/2 clone (R&D Systems #BAF923, BAM0981 R&D Systems, UK) and 1:3000 diluted streptavidin HRP (Roche Diagnostics GmbH, DE, Cat. No. 11089153001) was added for 1 h. Thereafter the plates were washed 6 times with PBST. Plates were developed with freshly prepared ABTS reagent (Roche Diagnostics GmbH, DE, buffer #204 530 001, tablets #11 112 422 001) for 30 minutes at RT. Absorbance was measured at 405 nm.

B1: <ANG-2>Ang2i_LC06 (antibody, V domains shown)
VH: not shown
VL: QPGLTQPPSVSVAPGQTARITCGGNNIGSKSVHWYQQKPGQAPVLVVYDDSDRPSGIPERFSGSNSGNTATLTISRVEAGDEADYYCQVWDSSSDHYVFGTGTKVTVLG
notes: also called anti-ANG2 antibody
In the case of B1, the IC50 is reported as 0.1 nM.
